Earlier results as cited in publication PMC12520553.
Read-outs that look alike come from different tables or passages of the source. Each block holds one substance with its values, some of them ahead of it.

Legend:
sRAGE ECD (Homo sapiens) = sRAGE ECD (Homo sapiens) (UniProt Q15109); assay: MST
S100B (Homo sapiens) [1] = target: S100B (Homo sapiens) (UniProt P04271); assay: SPR
S100B (Homo sapiens) [2] = target: S100B (Homo sapiens) (UniProt P04271); assay: ITC
RAGE (Homo sapiens) [3] = target: RAGE (Homo sapiens) (UniProt Q15109)
S100A13 (Homo sapiens) = S100A13 (Homo sapiens) (UniProt Q99584); assay: ITC
S100A13 (Homo sapiens), sequence (Q99584 whole entry): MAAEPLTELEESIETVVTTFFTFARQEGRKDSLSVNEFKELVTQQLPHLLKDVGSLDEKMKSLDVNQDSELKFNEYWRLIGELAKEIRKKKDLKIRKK

[4] = target: S100B (dimer) (Homo sapiens) (UniProt P04271); assay: SPR
S100B (dimer) (Homo sapiens), sequence (P04271 2-92): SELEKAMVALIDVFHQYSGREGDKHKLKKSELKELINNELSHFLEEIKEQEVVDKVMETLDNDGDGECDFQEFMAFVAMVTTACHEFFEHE

[5] = target: Aβ17-42 Aβ17-42 (Homo sapiens) (UniProt P05067); assay: MST
[6] = target: iso-Aβ42 Aβ42 (Homo sapiens) (UniProt P05067); assay: MST
[7] = target: pS8-Aβ42 Aβ42 (Homo sapiens) (UniProt P05067); assay: MST
RAGE (Homo sapiens) [8] = target: RAGE (Homo sapiens) (UniProt Q15109); assay: SPR
Aβ40 Aβ40 (Homo sapiens) [9] = target: Aβ40 Aβ40 (Homo sapiens) (UniProt P05067)
[10] = target: Aβ1-40 Aβ1-40 (Homo sapiens) (UniProt P05067)
Aβ42 Aβ42 (Homo sapiens) [11] = target: Aβ42 Aβ42 (Homo sapiens) (UniProt P05067)
S100A8 (Homo sapiens) = S100A8 (Homo sapiens) (UniProt P05109); assay: SPR
S100A8 (Homo sapiens), sequence (P05109 whole entry): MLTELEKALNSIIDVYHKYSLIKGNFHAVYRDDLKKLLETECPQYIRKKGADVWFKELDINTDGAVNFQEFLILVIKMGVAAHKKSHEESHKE

S100A9 (Homo sapiens) = S100A9 (Homo sapiens) (UniProt P06702); assay: SPR
S100A9 (Homo sapiens), sequence (P06702 whole entry): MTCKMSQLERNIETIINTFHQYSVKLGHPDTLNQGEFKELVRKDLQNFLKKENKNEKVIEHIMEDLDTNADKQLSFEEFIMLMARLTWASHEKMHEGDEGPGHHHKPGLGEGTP

[12] = target: fructose-BSA (Bos taurus) (UniProt P02769); assay: SPR
fructose-BSA (Bos taurus), sequence (P02769 25-607): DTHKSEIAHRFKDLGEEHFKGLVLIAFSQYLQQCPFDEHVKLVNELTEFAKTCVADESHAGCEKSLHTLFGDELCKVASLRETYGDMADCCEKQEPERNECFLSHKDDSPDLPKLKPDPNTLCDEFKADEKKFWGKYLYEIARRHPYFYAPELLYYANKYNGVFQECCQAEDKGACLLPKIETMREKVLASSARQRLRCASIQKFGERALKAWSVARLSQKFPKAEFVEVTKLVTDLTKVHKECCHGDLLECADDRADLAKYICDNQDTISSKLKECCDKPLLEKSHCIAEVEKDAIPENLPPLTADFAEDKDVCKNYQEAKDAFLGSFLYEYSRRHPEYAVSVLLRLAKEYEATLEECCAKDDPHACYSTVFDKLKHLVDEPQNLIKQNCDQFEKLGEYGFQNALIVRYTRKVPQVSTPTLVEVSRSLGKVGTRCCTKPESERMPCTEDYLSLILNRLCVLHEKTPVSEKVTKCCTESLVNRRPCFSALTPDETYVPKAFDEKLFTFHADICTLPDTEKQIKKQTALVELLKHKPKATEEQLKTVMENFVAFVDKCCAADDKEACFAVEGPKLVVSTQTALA

glucose-BSA (Bos taurus) = glucose-BSA (Bos taurus) (UniProt P02769); assay: SPR
glucose-BSA (Bos taurus), sequence (P02769 25-607): as above

[13] = target: RAGE V domain (Homo sapiens) (UniProt Q15109)
[14] = target: RAGE 23-132 (Homo sapiens) (UniProt Q15109)
Aβ Aβ (Homo sapiens) = Aβ Aβ (Homo sapiens) (UniProt P05067)
Aβ40 Aβ40 (Homo sapiens) [15] = target: Aβ40 Aβ40 (Homo sapiens) (UniProt P05067); remark: listed apart in the source
S100A5 (Homo sapiens) = S100A5 (Homo sapiens) (UniProt P33763)
S100A5 (Homo sapiens), sequence (P33763 whole entry): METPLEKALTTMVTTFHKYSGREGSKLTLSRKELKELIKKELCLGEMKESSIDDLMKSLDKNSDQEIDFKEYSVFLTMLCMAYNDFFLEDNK

C1q (Homo sapiens) = C1q (Homo sapiens) (UniProt P02745); assay: SPR
C1q (Homo sapiens), sequence (P02745 23-245, chain 1 of 3): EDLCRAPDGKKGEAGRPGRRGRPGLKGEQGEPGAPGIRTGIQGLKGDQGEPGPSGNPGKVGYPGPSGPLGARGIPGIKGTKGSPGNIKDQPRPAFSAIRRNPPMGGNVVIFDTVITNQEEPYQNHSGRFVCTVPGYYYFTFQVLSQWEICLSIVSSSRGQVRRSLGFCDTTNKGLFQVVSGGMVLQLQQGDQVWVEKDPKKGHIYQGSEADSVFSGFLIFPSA
C1q (Homo sapiens), sequence (P02746 28-253, chain 2 of 3, further chain): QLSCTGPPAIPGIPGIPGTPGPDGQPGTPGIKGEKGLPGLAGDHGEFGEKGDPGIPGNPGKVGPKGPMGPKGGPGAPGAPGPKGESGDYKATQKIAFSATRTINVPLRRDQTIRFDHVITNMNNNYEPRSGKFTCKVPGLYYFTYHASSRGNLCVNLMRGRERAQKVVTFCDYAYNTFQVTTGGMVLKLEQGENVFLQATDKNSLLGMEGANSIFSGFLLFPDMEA
C1q (Homo sapiens), sequence (P02747 29-245, chain 3 of 3, further chain): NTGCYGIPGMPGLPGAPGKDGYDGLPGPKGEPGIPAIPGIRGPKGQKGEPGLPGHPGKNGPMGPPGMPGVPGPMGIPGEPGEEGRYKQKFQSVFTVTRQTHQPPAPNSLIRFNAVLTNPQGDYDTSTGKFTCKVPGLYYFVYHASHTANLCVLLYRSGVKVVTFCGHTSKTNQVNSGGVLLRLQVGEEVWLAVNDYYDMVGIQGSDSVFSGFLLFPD

HMGB1 (Homo sapiens) = HMGB1 (Homo sapiens) (UniProt P09429); assay: SPR
HMGB1 (Homo sapiens), sequence (P09429 whole entry): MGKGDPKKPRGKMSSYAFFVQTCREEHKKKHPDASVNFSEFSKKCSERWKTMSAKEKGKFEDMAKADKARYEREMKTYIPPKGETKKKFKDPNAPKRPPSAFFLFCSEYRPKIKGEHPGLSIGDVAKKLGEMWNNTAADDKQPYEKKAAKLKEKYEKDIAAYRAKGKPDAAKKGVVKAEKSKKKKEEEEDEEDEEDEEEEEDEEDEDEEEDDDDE

S100A6m (Homo sapiens) = S100A6m (Homo sapiens) (UniProt P06703); assay: ITC
S100P (Homo sapiens) = S100P (Homo sapiens) (UniProt P25815); assay: ITC
S100P (Homo sapiens), sequence (P25815 whole entry): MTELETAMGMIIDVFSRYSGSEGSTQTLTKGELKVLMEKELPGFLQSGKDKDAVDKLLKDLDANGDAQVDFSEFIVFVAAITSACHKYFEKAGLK

S100A11 (Homo sapiens) = S100A11 (Homo sapiens) (UniProt P31949); assay: NMR
S100A11 (Homo sapiens), sequence (P31949 2-105): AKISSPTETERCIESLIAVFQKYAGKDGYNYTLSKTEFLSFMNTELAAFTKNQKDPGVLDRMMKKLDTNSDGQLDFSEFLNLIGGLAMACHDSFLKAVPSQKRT

Aβ42 Aβ42 (Homo sapiens) [16] = target: Aβ42 Aβ42 (Homo sapiens) (UniProt P05067); assay: MST
Aβ40 Aβ40 (Homo sapiens) [17] = target: Aβ40 Aβ40 (Homo sapiens) (UniProt P05067); assay: given as Ka

S100B (Homo sapiens), sequence (P04271 2-92): as the sequence (P04271 2-92) above
S100A5, sequence (P33763 whole entry): as the sequence (P33763 whole entry) above
fructose-BSA (AGE), sequence (P02769 25-607): as the sequence (P02769 25-607) above
glucose-BSA (AGE), sequence (P02769 25-607): as above
S100B, sequence (P04271 2-92): as the sequence (P04271 2-92) above
S100A9, sequence (P06702 whole entry): as the sequence (P06702 whole entry) above
S100A8, sequence (P05109 whole entry): as the sequence (P05109 whole entry) above

Substance: Amyloid-beta 17-42 Abeta 17-42 (from UniProt P05067)
Kd (sRAGE ECD (Homo sapiens)): 10000 nM

Substance: S100A8 (from UniProt P05109)
Kd (RAGE (Homo sapiens) [8]): 70 nM

Substance: RAGE (from UniProt Q15109)
Kd (Aβ40 Aβ40 (Homo sapiens) [9]): 75 nM | Kd [10]: 57 nM | Kd (Aβ42 Aβ42 (Homo sapiens) [11]): 92 nM | Kd (S100A8 (Homo sapiens)): 70 nM | Kd (S100A9 (Homo sapiens)): 3.21 nM | Kd [12]: 19500 nM | Kd (glucose-BSA (Bos taurus)): 13900 nM

Substance: fructose-BSA (AGE) (from UniProt P02769)
Kd (RAGE (Homo sapiens) [8]): 19500 nM

Substance: S100A9 (from UniProt P06702)
Kd (RAGE (Homo sapiens) [8]): 3.21 nM

Substance: S100B (from UniProt P04271)
Kd [14]: 500 nM

Second part, the substance after the results:

Kd (S100B (Homo sapiens) [1]): 500 nM
Substance: RAGE 23-132 (from UniProt Q15109)

Kd (S100B (Homo sapiens) [2]): 3190 nM
Substance: RAGE VC1 (from UniProt Q15109)

Kd (RAGE (Homo sapiens) [3]): 57 nM
Substance: Amyloid-beta 1-40 Abeta 1-40 (from UniProt P05067)

Kd (S100A13 (Homo sapiens)): 1300 nM
Substance: RAGE C2 (from UniProt Q15109)

Kd [4]: 8300 nM | Kd [5]: 10000 nM | Kd [6]: 23000 nM | Kd [7]: 7000 nM
Substance: sRAGE ECD (from UniProt Q15109)

Kd (RAGE (Homo sapiens) [8]): 13900 nM
Substance: glucose-BSA (AGE) (from UniProt P02769)

Kd [13]: 5900 nM
Substance: S100A5 (from UniProt P33763)

Kd (Aβ Aβ (Homo sapiens)): 52.2 nM | Kd (Aβ40 Aβ40 (Homo sapiens) [15]): 600 nM | Kd (S100A5 (Homo sapiens)): 5900 nM | Kd (C1q (Homo sapiens)): 5600 nM | Kd (HMGB1 (Homo sapiens)): 97.7 nM | Kd (S100A6m (Homo sapiens)): 3000 nM | Kd (S100P (Homo sapiens)): 6200 nM | Kd (S100A11 (Homo sapiens)): 2650 nM | Kd (Aβ42 Aβ42 (Homo sapiens) [16]): 1000 nM | Kd (Aβ40 Aβ40 (Homo sapiens) [17]): 625 nM
Substance: RAGE V domain (from UniProt Q15109)
